Source: patent US11479791B2, “Tools and methods for expression of membrane proteins” (VIB VZW, priority 2012, dated 2022)
One block for each molecule: values may come before it.

Columns and labels:
[1] = target: T1, human CXCR4 receptor (hCXCR4Rho1D4) (Homo sapiens, UniProt P61073); experiment: hCXCR4-Nb co-expression in P. pastoris GS115; anti-Rho1D4 immunoblot of membrane protein, quantified by Odyssey software; assay type: cell-based; conditions: for change of hCXCR4 receptor expression upon Nb co-expression (in words): immunoblot, versus GS115hCXCR4 clone without Nb co-expression
T1 construct: expressed in transfected cells; host or cells: Pichia pastoris GS115
Procedure: An hCXCR4 expressing Pichia clone was transformed with the four linearized Nanobody expressing vectors as described before. Twenty-four positive clones (six per Nb) were analyzed for protein expression. Growth conditions and membrane protein sample preparations were done as previously described. Equal amounts of total membrane protein (determined by a BCA assay) of induced P. pastoris GS115 clones, expressing only the human CXCR4 receptor, or in combination with one of the anti-hCXCR4 Nanobodies, were run on a 12% SDS-PAGE gel and blotted on a nitrocellulose membrane. The blot was developed with a primary mouse anti-Rho1D4 monoclonal antibody and a secondary Dylight (800 nm) goat anti-mouse IgG on an LI-COR odyssey system. […] The quantification was performed by the Odyssey software by measuring relative fluorescent signals (Table 3).
An hCXCR4 expressing Pichia clone was transformed with the linearized Nanobody expressing vector as described before. Three positive clones were analyzed for protein expression. Growth conditions and membrane protein sample preparations were done as previously described. Equal amounts of total membrane protein (determined by a BCA assay) of induced P. pastoris GS115 clones, expressing only the human CXCR4 receptor, or in combination with a anti-hCXCR4 Nanobody (NbCA4142), or in combination with the negative control Nanobody (NbCA4910), were run on a 12% SDS-PAGE gel and blotted on a nitrocellulose membrane. The blot was developed with a primary mouse anti-Rho1D4 monoclonal antibody and a secondary Dylight (800 nm) goat anti-mouse IgG on an LI-COR odyssey system. For the hCXCR4-specific Nb co-expressing clone we detect more of the anti-Rho1D4 immunoreactive membrane protein band compared to the GS115hCXCR4 clone without Nb co-expression. […] Exact quantification has been calculated by the Odyssey software by measuring relative fluorescent signals (Table 4). It can, thus, be concluded that the increase in receptor expression can be attributed to the Nanobody-specific interaction with the receptor.
Stable positive clones were typically grown in 2 ml (24-well format) or 12.5 ml (shake-flasks) BMGY medium for 48 hours (250 rpm; 28° C.). The cells were harvested by centrifugation and resuspended in the same amount of BMMY medium (1% methanol; 0.5% of methanol was added after 12 hours to maintain induction). After 24 hours the cells were harvested for membrane protein preparations (analysis of hCXCR4 expression and intracellular Nb retention) and the supernatant was used for analysis of extracellular protein expression on SDS-PAGE (Nanobodies).
The cell pellet corresponding to 1 ml of saturated yeast culture (OD600 60-80) was suspended in 1 ml of PBS+Protease inhibitor (Roche). Together with 200 μl of acid washed glass beads, the samples were vortexed heavily at 4° C. for 2×5 minutes. Glass beads, cell debris and intact cells were removed by centrifugation at 2000 rpm (5 min; 4° C.). The supernatant was kept as such or was centrifuged for 45 minutes at 13,000 rpm in a desktop centrifuge at 4° C. The supernatant, cytosolic fraction was discarded and the pellet fraction was re-dissolved in the same amount of fresh PBS+PI by sonication until a homogenous sample was obtained.
Total membrane protein concentration was determined by the BCA protein assay kit (Pierce, Thermo Scientific).
Protein samples were analyzed by SDS-poly-acrylamide gel electrophoresis, according to the Laemmli (Laemmli et al., 1970, Nature, 227:680) or the Tricine method (Schägger et al., 2006, Nat. Protoc. 1:16-22). Before loading on gel, the samples were mixed with 5× Laemmli (60 mM Tris-HCl pH 6.8; 2% SDS, 10% glycerol, 5% β-ME; 0.01% bromophenol blue) and heated for 10 minutes at 95° C. (only the ECM samples, not the membrane protein preparations). Prestained protein markers in the range of 10-250 kDa, Precision Plus protein standards (Bio-Rad), were used as molecular standards. […]

β2-adrenergic receptor = target: T2, β2-adrenergic receptor (Mesocricetus auratus, UniProt P04274); experiment: Purification of β2AR-Nanobody complex from HEK293S cells by Ni2+ affinity chromatography; assay type: binding; conditions: upon the addition of the antagonist alprenolol hydrochloride; FIG. 10
T2 construct: expressed in transfected cells
Text: The same technique as in Example 4 can be used using a Nanobody that binds an intracellular epitope of the membrane protein. Nanobody CA2780 (amino acid sequence: SEQ ID NO:5; Nucleotide sequence: SEQ ID NO:23) is an example of a Nanobody that binds an intracellular epitope of the β2-adrenergic receptor and that stabilizes the receptor in its active conformation (Rasmussen et al., 2011, Nature 469: 175). We transformed a HEK293 cell line that has a stable inducible β2AR expression with the pCAGGSNbCA2780-plasmid (see Material and Methods section) for transient expression. This Nanobody is not fused to a secretion signal and, therefore, resides in the cytosol upon expression, to allow interaction with the intracellular side of the membrane protein. Nanobody CA2780 has a hexaHis-tag and can, therefore, be purified using Ni^2+ affinity chromatography. […] In this way we strongly enrich for the receptor fraction that is in a well-folded state, because the Nanobody can only bind the receptor when it is in its native fold. This step strongly increases homogeneity in a membrane protein sample going to f.e. crystallization trials. If necessary, a subsequent purification using anti-Rho1D4 affinity chromatography can further enrich the sample for the receptor. […]

hCXCR4 receptor = target: T3, hCXCR4 receptor (Homo sapiens, UniProt P61073); experiment: Purification of hCXCR4-Nanobody complex from co-expressing P. pastoris clone by Ni2+ affinity chromatography; assay type: binding; conditions: DDM-solubilized membrane protein of co-expressing clone; FIG. 9
T3 construct: made in house; host or cells: Pichia pastoris GS115 co-expressing clone
Text: In this way we only purify the receptor fraction that is in a well-folded state, because the Nanobody can only bind the receptor when it is in its native fold. This step strongly increases homogeneity in a membrane protein sample which is useful, for example, for crystallization. […] In case an even more pure sample is required, an extra step of affinity chromatography can be performed using an anti-Rho1D4 affinity matrix, which targets the hCXCR4 part of the complex.
The cell pellet corresponding to 1 L of saturated yeast culture (OD600 60-80) was resuspended in a 1:1 (w/v) ratio of buffer A (1×PBS+Protease inhibitors). Together with 190 g of glass beads, the suspension was brought in the precooled DYNO®-MILL mixing chamber and cells were crushed for 5 minutes. The lysate was centrifuged for 10 minutes at 2,000 rpm (Sorvall F10S-6X500Y rotor) at 4° C. to remove cell debris and intact cells. The supernatant was centrifuged for an hour at 13,000 rpm (Sorvall F10S-6X500Y rotor) at 4° C. to pellet the membrane proteins. The pellet was resuspended in 10 ml buffer A with 1% DDM (n-Dodecyl β-D-maltoside) and put on a rotor for three hours at 4° C. to allow membrane protein solubilization. After solubilization, the solution is centrifuged for one hour at 13,000 rpm (Sorvall SS-34 rotor) at 4° C. to remove unsolubilized membrane proteins. […]

[2] = Table 3, anti-Rho1D4 immunoreactive hCXCR4 band, average of two independent experiments
[3] = Table 3, corrected for GS115 negative control
[4] = Table 4, co-expressing clone cl1
[5] = Table 4, co-expressing clone cl2
[6] = Table 4, co-expressing clone cl3

T1 sequence (P61073 with tags, fused parts or gaps isoform P61073-2): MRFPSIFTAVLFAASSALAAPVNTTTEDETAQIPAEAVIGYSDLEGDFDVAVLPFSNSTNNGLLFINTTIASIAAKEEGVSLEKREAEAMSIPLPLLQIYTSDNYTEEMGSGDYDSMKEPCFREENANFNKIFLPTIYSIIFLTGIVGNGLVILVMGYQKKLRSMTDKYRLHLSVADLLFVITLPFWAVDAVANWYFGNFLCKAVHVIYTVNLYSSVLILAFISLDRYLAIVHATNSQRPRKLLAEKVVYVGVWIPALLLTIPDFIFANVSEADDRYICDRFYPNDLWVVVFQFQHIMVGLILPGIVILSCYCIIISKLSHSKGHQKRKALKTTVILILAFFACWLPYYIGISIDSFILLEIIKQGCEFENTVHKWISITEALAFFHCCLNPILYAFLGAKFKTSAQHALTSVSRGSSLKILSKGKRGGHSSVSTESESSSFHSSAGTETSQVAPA
T2 sequence (P04274 whole entry): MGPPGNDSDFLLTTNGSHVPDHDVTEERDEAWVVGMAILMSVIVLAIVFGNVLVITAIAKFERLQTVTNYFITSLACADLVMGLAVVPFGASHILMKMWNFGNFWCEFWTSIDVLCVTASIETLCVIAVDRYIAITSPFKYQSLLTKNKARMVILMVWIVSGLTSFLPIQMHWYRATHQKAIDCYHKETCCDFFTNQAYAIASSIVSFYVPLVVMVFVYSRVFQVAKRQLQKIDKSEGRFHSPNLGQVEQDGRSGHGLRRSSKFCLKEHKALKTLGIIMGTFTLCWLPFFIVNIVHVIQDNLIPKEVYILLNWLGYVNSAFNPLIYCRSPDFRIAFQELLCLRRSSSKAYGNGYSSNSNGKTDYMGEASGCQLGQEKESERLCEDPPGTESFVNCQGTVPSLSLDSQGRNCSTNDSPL
T3 sequence (P61073 with tags, fused parts or gaps isoform P61073-2): as the sequence (P61073 with tags, fused parts or gaps isoform P61073-2) above

B1: NbCA4143: Nanobody directed against the extracellular side of the human CXCR4 receptor, SEQ ID NO:3, His6 tag (protein, listed as Lama glama)
VHH: QVQLQESGGGLVQPGGSLRLSCAASGFTFSSYAMSWVRQAPGKGLEWVSTINSGGRSANYADSVKGRLTISRDNAKNTLHLQMNSLKPEDTALYYCARPRSVSRNYVPLGYDYLGQGTQVTVSSHHHHHH
modifications: His6 tag
Fluorescent units [1, 2]: 41.06 fluorescent units | Blank corrected [1, 3]: 37.72 fluorescent units

B2: NbCA4910: negative control Nanobody which does not recognize the hCXCR4, SEQ ID NO:6 (protein, listed as Lama glama)
VHH: QVQLVESGGGLVQPGGSLRLSCAASGSFRSIVSMAWYRQAPGKQRELVASSNSGGSTNYADSVKGRFTISRDNAKNTVYLQMNSLKPEDTAVYWCNVQNRLPGFDAFSGRSIAETYWGQGTQVTVSSAAAHHHHHH
Blank corrected [1, 4]: 6.56 fluorescent units | Fluorescent units [1, 4]: 8.97 fluorescent units | Blank corrected [1, 5]: 17.89 fluorescent units | Fluorescent units [1, 5]: 20.30 fluorescent units | Blank corrected [1, 6]: 19.49 fluorescent units | Fluorescent units [1, 6]: 21.90 fluorescent units | change of hCXCR4 receptor expression upon Nb co-expression (in words) [1]: no increase in the receptor expression

B5: NbCA4142: Nanobody directed against the extracellular side of the human CXCR4 receptor, SEQ ID NO:2, His6 tag (protein, listed as Lama glama)
VHH: QVQLQESGGGLVRTGGSLRLSCAGSGSFFSINPMGWYRQAPGQQRELVATITGSGSTNYADSVKGRFTISRDNAKNTLYLQMNSLKPEDTAVYYCNAGYFDRIGRRYDRWGQGTQVTVSSHHHHHH
modifications: His6 tag
retention of the receptor on Ni2+ affinity column via hexaHis-tagged Nanobody (hCXCR4 receptor): strong retention of the receptor | Fluorescent units [1, 2]: 35.81 fluorescent units | Blank corrected [1, 3]: 32.47 fluorescent units | Fluorescent units ([1]; Table 4, control experiment): 32.76 fluorescent units | Blank corrected ([1]; Table 4, control experiment, corrected for GS115 negative control): 30.35 fluorescent units | change of hCXCR4 receptor expression upon Nb co-expression (in words) [1]: more

Second part, the molecule after the results:

interaction between receptor and Nanobody (complex purified by Ni2+ affinity chromatography) (β2-adrenergic receptor): strong interaction
B3: NbCA2780: Nanobody that binds an intracellular epitope of the β2-adrenergic receptor and stabilizes its active conformation (Rasmussen et al., 2011), SEQ ID NO:5 (protein, listed as Lama glama)
VHH: MEVQLQESGGGLVQAGGSLRLSCAASGSIFSINTMGWYRQAPGKQRELVAAIHSGGSTNYANSVKGRFTISRDNAANTVYLQMNSLKPEDTAVYYCNVKDYGAVLYEYDYWGQGTQVTVSSAAAHHHHHH

Fluorescent units [1, 2]: 39.95 fluorescent units | Blank corrected [1, 3]: 36.61 fluorescent units
B4: NbCA4140: Nanobody directed against the extracellular side of the human CXCR4 receptor, SEQ ID NO:1, His6 tag (protein, listed as Lama glama)
VHH: QVQLQESGGGLVQPGGSLRLSCAASGSIFSINAMGWYRQAPGKQRELVAAITSGGSTNYADSVKGRFTISRDNAENTVYLQMNNLKPEDTAVYSCNAEGTSGSSRYRRRYEYWGKGTQVTVSSHHHHHH
modifications: His6 tag

Fluorescent units [1, 2]: 21.59 fluorescent units | Blank corrected [1, 3]: 18.25 fluorescent units | change of hCXCR4 receptor expression upon Nb co-expression (in words) [1]: slight increase
B6: NbCA4500: Nanobody directed against the extracellular side of the human CXCR4 receptor, SEQ ID NO:4, His6 tag (protein, listed as Lama glama)
VHH: QVQLQESGGGLVQAGGSLRLSCAASGSTSGIIAMGWYRQAPGKQRELVARISSGSSTNYADSVKGRFTVSRDNAKNTVYLQMNSLKPEDTAVYYCNAVRRGYRNDYNSWGQGTQVTVSSHHHHHH
modifications: His6 tag
